Assay in all cases: ITC
A general note: In ITC the heat of successive injections is recorded.

Experiment [1] addresses T1, ZER1 (residues 469–766) N553A (human, UniProt Q7Z7L7 469-766, N553A).
The target of experiment [2] is T2, ZER1 (residues 469–766) (human, UniProt Q7Z7L7 469-766).
T2 chain: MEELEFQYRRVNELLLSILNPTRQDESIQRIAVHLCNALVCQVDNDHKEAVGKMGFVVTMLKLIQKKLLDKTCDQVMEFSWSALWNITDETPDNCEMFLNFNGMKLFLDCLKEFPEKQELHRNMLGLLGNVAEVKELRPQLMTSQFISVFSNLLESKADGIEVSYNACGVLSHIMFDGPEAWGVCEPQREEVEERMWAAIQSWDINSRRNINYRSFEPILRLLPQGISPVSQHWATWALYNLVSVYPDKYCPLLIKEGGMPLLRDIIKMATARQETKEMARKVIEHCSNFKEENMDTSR

Experiment [3] concerns the target ZYG11B (residues 490–728) (UniProt Q9C0D3 490-728).
Experiment [4] addresses ZYG11B (residues 490–728) N523A (UniProt Q9C0D3 490-728, N523A).
The target of experiment [5] is T2, ZER1 (residues 469–766).
The target in experiment [6] is T1, ZER1 (residues 469–766) N553A. This is another data set of the same source.

Read-outs that look alike come from different tables or passages of the source.

We go through 16 molecules from publication PMC9741652 (2022).

Sequence of ZYG11B (residues 490–728) (Q9C0D3 other isoform, or with tags, fused parts or gaps): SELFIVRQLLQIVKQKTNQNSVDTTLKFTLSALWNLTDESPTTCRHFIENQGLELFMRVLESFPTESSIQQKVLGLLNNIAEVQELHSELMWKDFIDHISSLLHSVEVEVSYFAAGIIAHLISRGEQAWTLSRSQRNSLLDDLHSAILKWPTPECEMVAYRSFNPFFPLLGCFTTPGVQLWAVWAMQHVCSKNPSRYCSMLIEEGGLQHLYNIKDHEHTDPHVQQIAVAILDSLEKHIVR
Sequence of ZYG11B (residues 490–728) N523A (Q9C0D3 other isoform, or with tags, fused parts or gaps N523A | N523A): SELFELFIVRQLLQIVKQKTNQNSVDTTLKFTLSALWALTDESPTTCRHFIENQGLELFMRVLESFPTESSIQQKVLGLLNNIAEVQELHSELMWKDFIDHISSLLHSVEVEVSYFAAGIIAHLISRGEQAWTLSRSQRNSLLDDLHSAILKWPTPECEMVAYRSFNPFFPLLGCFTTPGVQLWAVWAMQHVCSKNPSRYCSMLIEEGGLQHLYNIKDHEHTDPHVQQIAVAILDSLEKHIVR
T1 sequence (Q7Z7L7 other isoform, or with tags, fused parts or gaps N553A | N553A): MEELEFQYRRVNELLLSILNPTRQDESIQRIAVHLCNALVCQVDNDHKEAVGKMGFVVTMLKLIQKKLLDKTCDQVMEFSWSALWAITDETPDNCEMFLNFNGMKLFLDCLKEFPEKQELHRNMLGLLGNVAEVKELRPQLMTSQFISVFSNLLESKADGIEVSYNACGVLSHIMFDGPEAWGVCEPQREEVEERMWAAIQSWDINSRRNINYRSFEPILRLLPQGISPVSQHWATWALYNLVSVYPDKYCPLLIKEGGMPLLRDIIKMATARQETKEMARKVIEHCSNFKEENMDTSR

B1: TFLHVGQD peptide (peptide)
peptide: TFLHVGQD
modifications: N-terminus MEEL read as start Met plus native residues from 469; His tag left out
In the case of B1, binding in experiment [1] was put at a Kd of 7.9 µM. That is a single-digit micromolar value.

B2: TFLHVGQD peptide (peptide)
peptide: TFLHVGQD
modifications: Printed N-terminus MEEL is read as start Met plus native residues from 469 (by analogy with SELF in ZYG11B); C-terminal His tag of pNIC-CH left out
B2: binding in experiment [2] was put at a Kd of 3.1 µM. In other words, the single-digit micromolar range.

B3: GFLHVGQD peptide (peptide)
peptide: GFLHVGQD
modifications: Printed N-terminus SELF is read as vector Ser plus native E490-L491-F492 (numbering from the 7XYW entity, 485-728 starting AQLGTELF); His-SUMO tag left out
For B3, binding in experiment [3] was put at a Kd of 2.5 µM. AFLHVGQD: the Kd (usually the equilibrium constant for the complex coming apart) in experiment [4] is above 50 µM.

B4: free H2A peptide (sequence: SGRGKQGGKA) (peptide)
peptide: SGRGKQGGKA
modifications: Printed N-terminus MEEL is read as start Met plus native residues from 469 (by analogy with SELF in ZYG11B); C-terminal His tag of pNIC-CH left out
In experiment [5], B4 gave a Kd of 3.8 µM.

B5: SFLHVGQD peptide (peptide)
peptide: SFLHVGQD
modifications: Printed N-terminus MEEL is read as start Met plus native residues from 469 (by analogy with SELF in ZYG11B); C-terminal His tag of pNIC-CH left out
B5 showed a Kd in experiment [2] of 1.3 µM. In other words, the single-digit micromolar range.

B6: AFLHVGQD peptide (peptide)
peptide: AFLHVGQD
modifications: N-terminus MEEL read as start Met plus native residues from 469; His tag left out
Take B6: the dissociation constant Kd in experiment [1] turned out to be 7.6 µM.

B7: SFLHVGQD peptide (peptide)
peptide: SFLHVGQD
modifications: Printed N-terminus SELF is read as vector Ser plus native E490-L491-F492 (numbering from the 7XYW entity, 485-728 starting AQLGTELF); His-SUMO tag left out
For the molecule B7, binding in experiment [3] was characterised by a dissociation constant (Kd) of 6.8 µM. Molecule CFLHVGQD registered a Kd in experiment [4] of 2.9 µM.

B8: CFLHVGQD peptide (peptide)
peptide: CFLHVGQD
modifications: Printed N-terminus SELF is read as vector Ser plus native E490-L491-F492 (numbering from the 7XYW entity, 485-728 starting AQLGTELF); His-SUMO tag left out
In experiment [3], B8 yielded a dissociation constant (Kd) of 3 µM.

B9: GFLHVGQD peptide (peptide)
peptide: GFLHVGQD
modifications: Printed N-terminus MEEL is read as start Met plus native residues from 469 (by analogy with SELF in ZYG11B); C-terminal His tag of pNIC-CH left out
In turn, B9 yielded a Kd in experiment [2] of 4.2 µM.

B10: CFLHVGQD peptide (peptide)
peptide: CFLHVGQD
modifications: Printed N-terminus MEEL is read as start Met plus native residues from 469 (by analogy with SELF in ZYG11B); C-terminal His tag of pNIC-CH left out
Consider B10, for which the affinity in experiment [2], expressed as Kd, was 3.9 µM. For the molecule SFLHVGQD, the dissociation constant (Kd) in experiment [4] turned out to be 4.9 µM. In other words, the single-digit micromolar range.

B11: AFLHVGQD peptide (peptide)
peptide: AFLHVGQD
modifications: Printed N-terminus SELF is read as vector Ser plus native E490-L491-F492 (numbering from the 7XYW entity, 485-728 starting AQLGTELF); His-SUMO tag left out
As for B11, in experiment [3], binding was characterised by a dissociation constant (Kd) of 7.1 µM.

B12: AFLHVGQD peptide (peptide)
peptide: AFLHVGQD
modifications: Printed N-terminus MEEL is read as start Met plus native residues from 469 (by analogy with SELF in ZYG11B); C-terminal His tag of pNIC-CH left out
Regarding B12, binding in experiment [2] was characterised by a dissociation constant (Kd) of 1.6 µM.

B13: SFLHVGQD peptide (peptide)
peptide: SFLHVGQD
modifications: N-terminus MEEL read as start Met plus native residues from 469; His tag left out
In experiment [6], B13 yielded a Kd of 7.1 µM.
